Measurements: the supplement of paper PMC7877785
± gives the uncertainty stated by the source.

Assay: self-splicing fitness, log relative to wild type (ln ratio); higher = more splicing; Tetrahymena group I intron in knt gene, E. coli kanamycin selection, DiMSum; sequences stand for … in CUCUCU…GGAGGGAAAAGUUAUCAGGCAUGCACCUGGUAGCUAGUCUUUAAACCAAUAGAUUGCAUCGGUUUAAAAGGCAAGACCGUCAAAUUGCGGGAAAGGGGUCAACAGCCGUUCAGUACCAAGUCUCAGGGGAAACUUUGAGAUGGCCUUGCAAAGGGUAUGGUAAUAAGCUGACGGACAUGGUCCUAACCACGCAGCCAAGUCCUAAGUCAACAGAUCUUCUGUUGAUAUGGAUGCAGUUCACAGACUAAAUGUCGGUCGGGGAAGAUGUAUUCUUCUCAUAAGAUAUAGUCGGACCUCUCCUUAAUGGGAGCUAGCGGAUGAAGUGAUGCAACACUGGAGCCGCUGGGAACUAAUUUGUAUGCGAAAGUAUAUUGAUUAGUUUUGGAGUACUCGUGGUCG
Outline: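 Fitness was computed with DiMSum as the error-weighted combination of replicate fold changes, kanamycin versus none, each normalised to wild type. The library randomised all eight intron nucleotides of the P1ex region, with the intron placed in the knt kanamycin-resistance gene on pET-22b(+) in E. coli BL21(DE3). Six replicate transformations were grown overnight at 37°C or 30°C on LB agar with or without 25 μg/mL kanamycin, plus 100 μg/mL carbenicillin, 50 μM IPTG and 0.2% rhamnose. Pooled colonies were amplicon-sequenced on an Illumina HiSeq 2500.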

Sequence: AUUAAGCAAUAUUACGGGGC
- self-splicing fitness (ln) (30 °C): -3 ± 0.21
- self-splicing fitness (ln) (37 °C): -1.98 ± 0.26

Sequence: AUUAAGCAAUAUUACGGGGG
- self-splicing fitness (ln) (30 °C): -2.97 ± 0.27
- self-splicing fitness (ln) (37 °C): -2.33 ± 0.33

Sequence: AUUAAGCAAUAUUACGGUAC
- self-splicing fitness (ln) (30 °C): -3.84 ± 0.47
- self-splicing fitness (ln) (37 °C): -1.6 ± 0.2

Sequence: AUUAAGCAAUAUUACGUAUC
- self-splicing fitness (ln) (30 °C): -3.93 ± 0.25
- self-splicing fitness (ln) (37 °C): -2.31 ± 0.24

Sequence: AUUAAGCAAUAUUACGUCCA
- self-splicing fitness (ln) (30 °C): -0.883 ± 0.098
- self-splicing fitness (ln) (37 °C): -0.386 ± 0.12

Sequence: AUUAAGCAAUAUUACGUGAC
- self-splicing fitness (ln) (30 °C): -3.17 ± 0.17
- self-splicing fitness (ln) (37 °C): -1.75 ± 0.18

Sequence: AUUAAGCAAUAUUACGUGGU
- self-splicing fitness (ln) (30 °C): -2.42 ± 0.16
- self-splicing fitness (ln) (37 °C): -2.29 ± 0.19

Sequence: AUUAAGCAAUAUUACGUUUG
- self-splicing fitness (ln) (30 °C): -3.11 ± 0.15
- self-splicing fitness (ln) (37 °C): -1.56 ± 0.16

Sequence: AUUCAGCAAUAUUACGAAGG
- self-splicing fitness (ln) (30 °C): -1.02 ± 0.087
- self-splicing fitness (ln) (37 °C): -0.355 ± 0.12

Sequence: AUUCAGCAAUAUUACGACAU
- self-splicing fitness (ln) (30 °C): 0.206 ± 0.012
- self-splicing fitness (ln) (37 °C): 0.365 ± 0.032

Sequence: AUUCAGCAAUAUUACGAGCU
- self-splicing fitness (ln) (30 °C): -1.21 ± 0.14
- self-splicing fitness (ln) (37 °C): -0.997 ± 0.17

Sequence: AUUCAGCAAUAUUACGAGUC
- self-splicing fitness (ln) (30 °C): -3.54 ± 0.26
- self-splicing fitness (ln) (37 °C): -2.13 ± 0.43

Sequence: AUUCAGCAAUAUUACGCGGC
- self-splicing fitness (ln) (30 °C): -3.26 ± 0.22
- self-splicing fitness (ln) (37 °C): -2.43 ± 0.22

Sequence: AUUCAGCAAUAUUACGGAAC
- self-splicing fitness (ln) (30 °C): -2.54 ± 0.15
- self-splicing fitness (ln) (37 °C): -1.01 ± 0.17

Sequence: AUUCAGCAAUAUUACGGAAU
- self-splicing fitness (ln) (30 °C): -2.86 ± 0.14
- self-splicing fitness (ln) (37 °C): -2.61 ± 0.23

Sequence: AUUCAGCAAUAUUACGGCUG
- self-splicing fitness (ln) (30 °C): -1.86 ± 0.2
- self-splicing fitness (ln) (37 °C): -2.59 ± 0.31

Sequence: AUUCAGCAAUAUUACGGGAC
- self-splicing fitness (ln) (30 °C): -3.2 ± 0.16
- self-splicing fitness (ln) (37 °C): -1.2 ± 0.12

Sequence: AUUCAGCAAUAUUACGGGCA
- self-splicing fitness (ln) (30 °C): -1.47 ± 0.14
- self-splicing fitness (ln) (37 °C): -0.16 ± 0.14

Sequence: AUUCAGCAAUAUUACGGUAC
- self-splicing fitness (ln) (30 °C): -2.27 ± 0.11
- self-splicing fitness (ln) (37 °C): -0.675 ± 0.094

Sequence: AUUCAGCAAUAUUACGGUCA
- self-splicing fitness (ln) (30 °C): -0.711 ± 0.12
- self-splicing fitness (ln) (37 °C): -0.789 ± 0.11

Sequence: AUUCAGCAAUAUUACGGUGC
- self-splicing fitness (ln) (30 °C): -2.13 ± 0.16
- self-splicing fitness (ln) (37 °C): -0.156 ± 0.14

Sequence: AUUCAGCAAUAUUACGUAGA
- self-splicing fitness (ln) (30 °C): -1.35 ± 0.066
- self-splicing fitness (ln) (37 °C): -0.424 ± 0.094

Sequence: AUUCAGCAAUAUUACGUAUA
- self-splicing fitness (ln) (30 °C): -1.66 ± 0.16
- self-splicing fitness (ln) (37 °C): -0.805 ± 0.17

Sequence: AUUCAGCAAUAUUACGUAUG
- self-splicing fitness (ln) (30 °C): -2.34 ± 0.13
- self-splicing fitness (ln) (37 °C): -0.383 ± 0.12

Sequence: AUUCAGCAAUAUUACGUCAC
- self-splicing fitness (ln) (30 °C): -3.45 ± 0.2
- self-splicing fitness (ln) (37 °C): -2.19 ± 0.25

Sequence: AUUCAGCAAUAUUACGUGUA
- self-splicing fitness (ln) (30 °C): -1.7 ± 0.11
- self-splicing fitness (ln) (37 °C): -1.02 ± 0.092

Sequence: AUUGAGCAAUAUUACGAACA
- self-splicing fitness (ln) (30 °C): -3.6 ± 0.32
- self-splicing fitness (ln) (37 °C): -2.75 ± 0.25

Sequence: AUUGAGCAAUAUUACGAAGA
- self-splicing fitness (ln) (30 °C): -2.47 ± 0.25
- self-splicing fitness (ln) (37 °C): -2.23 ± 0.35

Sequence: AUUGAGCAAUAUUACGACAG
- self-splicing fitness (ln) (30 °C): -3.48 ± 0.26
- self-splicing fitness (ln) (37 °C): -2.18 ± 0.21

Sequence: AUUGAGCAAUAUUACGACCU
- self-splicing fitness (ln) (30 °C): -3.17 ± 0.27
- self-splicing fitness (ln) (37 °C): -0.0611 ± 0.17

Sequence: AUUGAGCAAUAUUACGACUA
- self-splicing fitness (ln) (30 °C): -1.2 ± 0.42
- self-splicing fitness (ln) (37 °C): -1.89 ± 0.41

Sequence: AUUGAGCAAUAUUACGACUU
- self-splicing fitness (ln) (30 °C): -1.5 ± 0.12
- self-splicing fitness (ln) (37 °C): -0.31 ± 0.13

Sequence: AUUGAGCAAUAUUACGAGCC
- self-splicing fitness (ln) (30 °C): -3.44 ± 0.26
- self-splicing fitness (ln) (37 °C): -2.48 ± 0.3

Sequence: AUUGAGCAAUAUUACGAGCU
- self-splicing fitness (ln) (30 °C): -3.6 ± 0.37
- self-splicing fitness (ln) (37 °C): -1.63 ± 0.37

Sequence: AUUGAGCAAUAUUACGAGUU
- self-splicing fitness (ln) (30 °C): -2.58 ± 0.14
- self-splicing fitness (ln) (37 °C): -2.23 ± 0.17

Sequence: AUUGAGCAAUAUUACGAUCG
- self-splicing fitness (ln) (30 °C): -2.34 ± 0.34
- self-splicing fitness (ln) (37 °C): -1.04 ± 0.19

Sequence: AUUGAGCAAUAUUACGAUUA
- self-splicing fitness (ln) (30 °C): -2.36 ± 0.23
- self-splicing fitness (ln) (37 °C): -2.62 ± 0.36
